Data: patent publication US20100303819A1

Experiments:
Assay in all cases: control-mAb-coated microbeads on monocyte-derived macrophages (which carry hDCL-1, MMR and DEC-205), confocal microscopy
[1] = target: human DCL-1 (native, on human leukocytes) (human) (UniProt Q8IX05)
[2] = target: DEC-205 (CD205) on human monocyte-derived macrophages (human) (UniProt O60449)
[3] = target: MMR/CD206 on human monocyte-derived macrophages (human) (UniProt P22897)

Measured: microbeads bound per cell

Chain of UniProt Q8IX05 (Q8IX05 23-232 limits assumed): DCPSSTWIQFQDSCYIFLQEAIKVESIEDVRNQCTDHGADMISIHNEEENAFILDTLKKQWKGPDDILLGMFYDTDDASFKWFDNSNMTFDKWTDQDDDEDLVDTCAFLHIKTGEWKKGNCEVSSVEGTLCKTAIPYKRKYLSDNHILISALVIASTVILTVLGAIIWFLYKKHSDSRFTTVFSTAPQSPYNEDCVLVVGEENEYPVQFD
Chain of UniProt P22897 (P22897 19-1456): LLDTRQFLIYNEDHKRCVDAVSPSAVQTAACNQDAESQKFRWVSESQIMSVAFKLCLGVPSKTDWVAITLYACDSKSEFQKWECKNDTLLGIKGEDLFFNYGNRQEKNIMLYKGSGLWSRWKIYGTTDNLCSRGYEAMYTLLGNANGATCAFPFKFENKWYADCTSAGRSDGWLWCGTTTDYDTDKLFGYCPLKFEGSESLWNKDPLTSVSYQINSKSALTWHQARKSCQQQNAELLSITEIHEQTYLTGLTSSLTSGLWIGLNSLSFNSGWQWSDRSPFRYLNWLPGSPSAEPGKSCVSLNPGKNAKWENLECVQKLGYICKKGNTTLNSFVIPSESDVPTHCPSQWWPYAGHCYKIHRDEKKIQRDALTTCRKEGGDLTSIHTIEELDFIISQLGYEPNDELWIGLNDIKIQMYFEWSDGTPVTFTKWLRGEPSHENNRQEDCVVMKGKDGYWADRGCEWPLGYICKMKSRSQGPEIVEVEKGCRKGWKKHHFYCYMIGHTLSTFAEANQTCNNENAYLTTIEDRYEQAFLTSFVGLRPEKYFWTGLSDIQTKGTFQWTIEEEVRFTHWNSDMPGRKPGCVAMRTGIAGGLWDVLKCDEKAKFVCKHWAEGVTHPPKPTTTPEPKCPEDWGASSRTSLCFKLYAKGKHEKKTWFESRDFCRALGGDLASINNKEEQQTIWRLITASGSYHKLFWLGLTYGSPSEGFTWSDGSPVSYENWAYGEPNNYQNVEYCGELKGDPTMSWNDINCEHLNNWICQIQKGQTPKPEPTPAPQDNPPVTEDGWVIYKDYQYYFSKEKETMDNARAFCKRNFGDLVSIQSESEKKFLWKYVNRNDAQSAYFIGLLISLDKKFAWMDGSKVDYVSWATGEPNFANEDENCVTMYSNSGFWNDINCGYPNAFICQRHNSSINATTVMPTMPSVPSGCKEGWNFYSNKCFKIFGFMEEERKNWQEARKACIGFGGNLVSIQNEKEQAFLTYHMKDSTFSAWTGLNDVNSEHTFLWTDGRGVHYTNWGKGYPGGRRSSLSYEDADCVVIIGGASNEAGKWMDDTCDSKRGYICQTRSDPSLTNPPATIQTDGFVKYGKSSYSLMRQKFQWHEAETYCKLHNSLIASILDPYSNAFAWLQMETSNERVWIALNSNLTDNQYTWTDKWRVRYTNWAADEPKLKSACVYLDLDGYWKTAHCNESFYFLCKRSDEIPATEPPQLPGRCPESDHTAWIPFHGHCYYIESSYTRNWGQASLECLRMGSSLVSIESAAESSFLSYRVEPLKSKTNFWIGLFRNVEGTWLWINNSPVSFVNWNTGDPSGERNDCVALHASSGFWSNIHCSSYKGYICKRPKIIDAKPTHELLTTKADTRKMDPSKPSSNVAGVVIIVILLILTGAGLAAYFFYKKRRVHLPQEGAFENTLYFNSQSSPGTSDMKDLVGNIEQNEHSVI
Chain of UniProt O60449 (O60449 28-1722): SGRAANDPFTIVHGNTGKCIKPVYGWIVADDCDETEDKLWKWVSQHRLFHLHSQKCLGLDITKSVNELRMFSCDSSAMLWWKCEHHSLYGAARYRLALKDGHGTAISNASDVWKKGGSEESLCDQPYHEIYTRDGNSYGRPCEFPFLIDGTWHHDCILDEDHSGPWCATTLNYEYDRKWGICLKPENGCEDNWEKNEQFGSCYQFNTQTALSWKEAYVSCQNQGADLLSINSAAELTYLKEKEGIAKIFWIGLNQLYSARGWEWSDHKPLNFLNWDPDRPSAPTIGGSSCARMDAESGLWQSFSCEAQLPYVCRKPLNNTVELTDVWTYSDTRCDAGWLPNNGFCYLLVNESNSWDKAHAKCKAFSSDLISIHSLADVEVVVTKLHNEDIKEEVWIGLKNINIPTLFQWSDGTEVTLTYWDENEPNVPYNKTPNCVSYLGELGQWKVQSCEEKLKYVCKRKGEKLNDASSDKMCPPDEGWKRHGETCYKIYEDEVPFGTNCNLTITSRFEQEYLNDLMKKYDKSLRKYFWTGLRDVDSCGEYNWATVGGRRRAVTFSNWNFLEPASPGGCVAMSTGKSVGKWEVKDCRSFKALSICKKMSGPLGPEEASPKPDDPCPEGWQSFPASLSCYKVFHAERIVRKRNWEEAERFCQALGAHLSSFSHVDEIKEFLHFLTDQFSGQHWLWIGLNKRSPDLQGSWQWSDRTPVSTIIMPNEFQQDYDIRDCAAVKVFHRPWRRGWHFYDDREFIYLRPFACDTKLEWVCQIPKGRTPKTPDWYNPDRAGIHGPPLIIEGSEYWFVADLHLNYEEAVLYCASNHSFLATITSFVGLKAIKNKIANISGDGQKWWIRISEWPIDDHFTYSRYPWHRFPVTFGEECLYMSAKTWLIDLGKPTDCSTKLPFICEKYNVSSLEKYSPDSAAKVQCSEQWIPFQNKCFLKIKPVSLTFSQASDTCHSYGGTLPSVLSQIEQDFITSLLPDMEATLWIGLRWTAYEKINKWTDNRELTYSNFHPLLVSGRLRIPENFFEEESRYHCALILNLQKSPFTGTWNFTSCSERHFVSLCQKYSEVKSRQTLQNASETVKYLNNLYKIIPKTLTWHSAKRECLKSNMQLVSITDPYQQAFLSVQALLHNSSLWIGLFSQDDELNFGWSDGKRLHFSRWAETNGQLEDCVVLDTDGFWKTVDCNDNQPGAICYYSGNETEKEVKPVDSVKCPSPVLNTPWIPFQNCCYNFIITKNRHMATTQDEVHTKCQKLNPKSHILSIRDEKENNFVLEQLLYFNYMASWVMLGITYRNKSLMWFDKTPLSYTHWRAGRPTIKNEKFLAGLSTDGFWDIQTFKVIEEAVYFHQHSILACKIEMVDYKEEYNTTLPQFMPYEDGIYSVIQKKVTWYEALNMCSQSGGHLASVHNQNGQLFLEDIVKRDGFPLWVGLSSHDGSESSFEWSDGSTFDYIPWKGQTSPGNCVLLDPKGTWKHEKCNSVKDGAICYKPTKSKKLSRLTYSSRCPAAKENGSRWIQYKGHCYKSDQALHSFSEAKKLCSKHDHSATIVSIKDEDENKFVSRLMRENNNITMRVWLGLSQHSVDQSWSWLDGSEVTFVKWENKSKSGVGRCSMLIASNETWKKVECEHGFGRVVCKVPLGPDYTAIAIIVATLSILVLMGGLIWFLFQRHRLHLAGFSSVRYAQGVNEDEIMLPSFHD

isotype control mAb 401.21 (antibody)
0.09 beads/cell: [1] | [2] | [3]
